# Test results published in the emibetuzumab library of Makowski et al. (2022).
# B1: VH:VL chains; a variant is named by its letters at X, in order (parent)
# chain 1: QVQLVQSGAEVKKPGASVKVSCKASGYTFTDYXMHWVRQAPGQGLEWMGXVNPNXXXTTYNQKFEGRVTMTTDTSTSTAYMELRSLRSDDTAVYYCARXNXLDXWGQGTTVTVSS
# chain 2: DIQMTQSPSSLSASVGDRVTITCSVSSSVSSIYLHWYQQKPGKAPKLLIYSTSNLASGVPSRFSGSGSGTDFTLTISSLQPEDFATYYCQVYSGYPLTFGGGTKVEIK
# Variants of: B1
# Test: yeast display scFab, FACS + sequencing
# How it was run: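 For the non-specific binding call, a heavy-chain CDR mutant scFab library on the yeast surface was FACS-sorted and samples from two replicates were deep sequenced. Cells were labelled with anti-Myc and either biotinylated ovalbumin (260 μg/mL in PBSB, 3 h, room temperature) or soluble membrane proteins (130 μg/mL, 20 min on ice), with gates on the top 25% and bottom 10% of binders. With membrane protein and ovalbumin samples pooled, a sequence in ≥3 of 4 positive samples and no negatives was scored positive, and the converse rule scored negatives.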
row,Variant,non-specific binding call
1,ARGAGYGS,binds
2,YREKGSLD,binds
3,YREKGSSA,binds
4,YREKGSSV,binds
5,VRERSSVD,binds
6,FRERGAGD,binds
7,FRERGAGY,binds
8,FRGEGSVS,binds
9,FRGESSWD,binds
10,YRERSSLD,binds
11,VRERGDGS,no binding
12,VRERGDGV,no binding
13,FRGADFGD,binds
14,FRGESSGA,binds
15,VRGEGSWD,binds
16,FRERGDGA,binds
17,YRGEAFLY,binds
18,DRGEGAGD chain 1 G42D,no binding
19,YRGAGYAA,binds
20,YRERSDVS,binds
21,YRERGSAA,binds
22,YRERGSAV,binds
23,YRERGSAD,binds
24,FRGESSAD,binds
25,YRERTAAV,binds
26,YRGANVVY,binds

row,Variant,non-specific binding call
1,FRGEGAVS,binds
2,YRGESAWV,binds
3,YRERGSWV,binds
4,VRERGAWD,binds
5,YRGAGSAD,binds
6,VRGAGSWV,binds
7,YRGAGYGS,binds
8,VRGAGAWV,binds
9,YRGAGSVD,binds
10,YRERGSSF,binds
11,FRGESAAA,binds
12,FRERNAAA,binds
13,YRGEGAWV,binds
14,YRGASSWV,binds
15,YRGAGSGS,binds
16,YRGAGSGY,binds
17,YRGAGSGD,binds
18,YRGAGSGV,binds
19,YRGAASAV,binds
20,YRGAGFVD,binds
21,FRERGSWV,binds
22,VRERGDLV,no binding
23,YRERSSVA,binds
24,YRGESSGF,binds
25,FRERGYGA,binds
26,YRGAASSD,binds

row,Variant,non-specific binding call
1,YRGANSVF,binds
2,YRGASAAA,binds
3,YRGAGALV,binds
4,FRGEAVVY,binds
5,FRERGSAV,binds
6,FRERGSAD,binds
7,VRERGVGV,binds
8,YRGASSGF,binds
9,YRERGAAA,binds
10,YRERGAAV,binds
11,YRERGAAF,binds
12,YRERGAAD,binds
13,YRERAAGY,binds
14,FRERGAAA,binds
15,VRERGSSF,no binding
16,VRERGDAS,binds
17,VRERGDAA,no binding
18,YRERGAGF,binds
19,FRERGALA,binds
20,FRGEGALV,binds
21,YRGGAAWY,binds
22,YRGGAAWD,binds
23,VRERGAGS,binds
24,ARERGDGY,no binding
25,YRGEGSAS,binds
26,VRERGSAV,binds

row,Variant,non-specific binding call
1,VRERGSAD,binds
2,YRGAAASS,no binding
3,YRGAGAAA,binds
4,YRGAGAAD,binds
5,YRGGAAAA,binds
6,VRERGSLY,binds
7,FRGEGFSV,binds
8,VRERGSWD,binds
9,VRERGSWV,binds
10,YRGANSGA,binds
11,YRERGALS,binds
12,YRERGALA,binds
13,ARGEGSGV,no binding
14,FRETDFGA,binds
15,YRGADFGF,binds
16,YRERDSAD,binds
17,VRERGDWV,no binding
18,VRERGDWF,no binding
19,YRGAGAWS,binds
20,YRGAGAWA,binds
21,YRGAGAWV,binds
22,FRGESAGA,binds
23,FRGESAGS,binds
24,FRGESAGV,binds
25,VRERGASD,binds
26,YRERGAWV,binds

row,Variant,non-specific binding call
1,YRERNAAA,binds
2,YRGEGASD,binds
3,YRGEASVD,binds
4,YRGEGDAV,no binding
5,YRGEGDAA,no binding
6,FRERGAVV,binds
7,FRGEGAAD,binds
8,SRGANAWD,binds
9,SRGGAAWA,binds
10,YRGAGAGS,binds
11,YRGAGAGA,binds
12,YRGAGAGV,binds
13,YRGESAVD,binds
14,YRERGAVV,binds
15,FRGADSGF chain 1 R98K,binds
16,DRERGDGY,no binding
17,YRGAGAVY,binds
18,YRGAGAVS,binds
19,YRGGASAA,binds
20,FRGEGSGV,binds
21,YRGAGSLD,binds
22,FRGAGSVA,binds
23,FRGAGSVD,binds
24,YRGEGAVS,binds
